Experimental data published in US20260227416A1 (published 2026).

Biological target: T1, CD20 on SU-DHL4 cells (UniProt P11836 1-297, limits assumed)
T1 sequence (looked up): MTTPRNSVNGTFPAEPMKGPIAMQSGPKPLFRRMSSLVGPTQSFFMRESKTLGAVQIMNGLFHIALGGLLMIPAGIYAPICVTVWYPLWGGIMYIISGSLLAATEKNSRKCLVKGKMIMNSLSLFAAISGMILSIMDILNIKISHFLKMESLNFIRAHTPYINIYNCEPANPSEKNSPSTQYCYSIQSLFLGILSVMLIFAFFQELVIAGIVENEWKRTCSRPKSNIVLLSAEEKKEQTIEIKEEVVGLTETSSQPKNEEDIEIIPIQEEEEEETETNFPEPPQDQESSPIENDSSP
Assay: cell-based or functional assay

B1: Rituximab chimeric antibody (antibody, human IgG1, kappa, V domains shown)
VH: VQLQQPGAELVKPGASVKMSCKASGYTFTSYNMHWVKQTPGRGLEWIGAIYPGNGDTSYNQKFKGKATLTADKSSSTAYMQLSSLTSEDSAVYYCARSTYYGGDWYFNVWGAGTTVTVSA
VL: QIVLSQSPAILSASPGEKVTMTCRASSSVSYIHWFQQKPGSSPKPWIYATSNLASGVPVRFSGSGSGTSYSLTISRVEAEDAATYYCQQWTSNPPTFGGGTKLEIKR
- EC50 values of target cell killing (ADCC, SU-DHL4 target cells): ~10 ng/mL
